Measured values published in the DeepSol protein solubility set.

assay: soluble on expression in E. coli; label from the status in PepcDB or PDB records

Row | Sequence | soluble on expression in E. coli
1 | MGSDKIHHHHHHMIIGGLYMKFFEENYSQEIPTRIKNLRKKHNITQSELGNAGQVSQVESGKRPITSSMLVYLNALTASNYTYIVFGELDEFIENLFHYFFSSILYRDLEAVDENLYSFMSDDLISIQSSCLSIAKTFANFNIQRKRFMISTETEMDTFHKKDDIDVWVGGKSYNPARSFRNNPINELTVIDFEEMADILLLMLRDNLIRSFEINVCNTLFELDKNGEPTTFNLDKIDSIINKWWSENVSTEIIPNLIKKLRENPLFNIGFMVNDILERMYKEDIPKSYLTSVPLVISKKARSTLSIKSNGSQKIDKSKFAQILSL | not soluble
2 | MELETEIIVDKVDVENPILITSFPGIGLVGTIATAHYIMELKLESIGIVDSRLLPPVASLYEGVILPPVRVYQSADLGFVLIHSDVPIIPQAAIDMSKKIVQFAAEINARRVYSFAGVATFEDKKRVFAAATSKELLEEVKDHAEIFKTGTISGIAGSIMNECVAAKMPGIVLLGETLGFNPDPRAAASLIEAVNKIMNWNVSVEKLLKEAEMIEAQMQKLAEQARMQEERKEEFPMYG | soluble
3 | MNRREANALDRYLTEPTEKPHKETYEDDPVDTTDYFGNEIADEDGVFEITFAMKCLYTGQPVLTCKKIATQDTIVDLIEELGEENVYLIEYVSSGKRYKEGLLND | not soluble
4 | MAVQFEFYKNPVQGEEEGETSYHPRVVNFQHVTTQRLAVEIHSATTFGKAEVEAMLMELSRCMGNHLREGQRVHLDGVGYFQITLQATEPIHSMAAHADKVKFKSVSFLADRDLKGELIGMHAQRSKYKPHSATLSQEEIDKKLTGYFATHTVLTRSDMQSLCQFTHSMAARHIRRLKEEGSLQNIGIRTQPIYVPCPGHYGK | not soluble
5 | ETRECKEALAKSEMNVNMKCQLPNFTAETPIQNVILHEHHIFLGATNYIYVLNEEDLQKVAEYKTGPVLEHPDCFPCQDCSSKANLSGGVWKDNINMALVVDTYYDDQLISCGSVNRGTCQRHVFPHNHTADIQSEVHCIFSPQIEEPSQCPDCVVSALGAKVLSSVKDRFINFFVGNTINSSYFPDHPLHSISVRRLKETKDGFMFLTDQSYIDVLPEFRDSYPIKYVHAFESNNFIYFLTVQRETLDAQTFHTRIIRFCSINSGLHSYMEMPLECILTEKRKKRSTKKEVFNILQAAYVSKPGAQLARQIGASLNDDILFAVFAQSKPDSAEPMDRSAMCAFPIKYVNDFFNKIVNKNNVRCLQHFYGPNHEHCFNRTLLRNSSGCEARRDEYRTEFTTALQRVDLFMGQFSEVLLTSISTFIKGDLTIANLGTSEGRFMQVVVSRSGPSTPHVNFLLDSHPVSPEVIVEHTLNQNGYTLVITGKKITKIPLNGLGCRHFQSCSQCLSAPPFVQCGWCHDKCVRSEECLSGTWTQQICLPAIYKVFPNSAPLEGGTRLTICGWDFGFRRNNKFDLKKTRVLLGNESCTLTLSESTMNTLKCTVGPAMNKHFNMSIIISNGHGTTQYSTFSYVDPVITSISPKYGPMAGGTLLTLTGNYLNSGNSRHISIGGKTCTLKSVSNSILECYTPAQTISTEFAVKLKIDLANRETSIFSYREDLHHHHHH | soluble
6 | MGSDKIHHHHHHMRVMAFVQARMGSTRLPGKSLMPVWNGMGVLEMTLRRALRARTLSGVVLCTSTDPACDALETLASGLGVQAFRGPEDDVLTRYALATERFEPDAVVRICADSPLVCPEGIDALVAFFRDEGLDYAAHAMDGTGLPDGLGCEVFTAAALAQAHAEATAPEDREHVSLFIRHRPERFRQATLAADAALRAPGVSLDVDTQDDLDALRRFIMALPPSEGPFWSADAIAPLARGLHTPPQGTSMDIASDDYHDFFIRDGKLIGEFEQMYRKSRHAPWHQDEACDKWFNKVSAALVGHALDDPSVRTVFEVGSGLGYFLSQFAGEGRTLTGTDVSATAVEKARALFPGISFEVDDIRFEGRRGPYDLCLMQAVCWCIFPHMDDVVRNVTATVRPGGYLFLGECFQPLDGPFAGKDVIPTPDALIGHFSHAFDTVADVRVTRGEMGGGPIIYWLGRRRG | not soluble
7 | MAHHHHHHMLRRVTCMAASVGRAAAALSVSPVMAQIPSAMRPPSKASTSAVASLLPPCCQPIYQQRRCYASRSGEEKGNADKGTQAAAAAVSTTPGTATAEAVRYFAANEQNADAAARAQGSVKQQEQLSAAAANGGDAATSGIRTIGIKLTEDDELVRAFNNFSKSVNGCTQEEFLIGAKQAYYSLAVVISAFLEHGQPLAGRTESTKMIAAAHEAAKLLDKEFKPESRCDAAATSLASKAEGDGTDDSSSSSSKTKLQESLVRNVVSTIVSLIPVSRHLAESIFKIWLLHKVKQVNLSSIASPADYVLDSKLVIFARLGKARMYFNSDNVGAEVDVTFSNDYLRKLDPASVAGSGAAGSSQMADAAGKVDEDDFDTGMIQVHTDTDANAHRTTAEEHTFVVNKATRTLTPTGSTAASTAAAAAAASTDAARRSGGNSASAGAGGASAADSAKSSGTASRIQVTCVKTTDFLRKSASAATVAATAVRDEAAAKTAAPNESSGEEEEEAHSVYIKVNGNMLPPIPASAHACALLTVDVVVPPERYAYNFEWFYKRIVGYENEYERIAAARVFASNSPKPLASFLDFFMRMVTGKPVEFMFSKAIGRMIGIPDDVSQTPPATRKLMCMYMDQSYKWVLADLVTLAPVMETKLPKA | not soluble
8 | MDALQAYGGSDSEHSDDDASMDQVAKGKSSTLLERAIVTAPDVESKSAIRQVAIVDPKTKEIKSNPKFDQLFKPESGPVNHFKSEQQRSQKNTLTGFVEPAHLNEFHFNRQIRSFDTLGYAQNPTAESGTTHFVGDVKKAEAEKGVSLFESKKTGGEKRKRVRNDDSADIDGYTGPWSRFIDEKTVAKPTPELQKQMDEIVKKRQEKSRRFKKEKEDSEQMAEESSTLHLKEAEDYQGRSFLVPPSFTGVNLREDYVPERCFVPKKLVHTYRGHNKGVNFLQWFPKSAHLFLSCSMDTKIKLWEVYDRQRVVRTYAGHKLPVREVAFNNEGTEFLSASFDRYVKLWDTETGQVKQRFHTGHVPYCLKYHPDDDKNHMFLVGMQNKKIIQWDSRSGEIVQEYDRHLQAVNSITFFDKNRRFASTSDDKSVRIWEWEIPVDTKLIQNVGLHAIPTMTKSPNDKWVVGQCMDNRIVLFQLVDDKLRFSKKKAFRGHNAAGYACNIDFSPDQSFLISGDADGKLFIWDWRTHKIVGKWKAHDSTCIAALWHPHEKSRMITAGWDGLIKMWN | soluble
9 | MGSDKIHHHHHHMEKLQESMYQLIVETSTNLPKDVRRAIQQAKERENAGTRSAMALGTITNNIKMADDNISPICQDTGMPTFKIYTPVGVNQLKLKEAIYNALERATKDGKLRPNSVDSLFGDNSGNNLGPGTPVIKFEQWEKDYIDARLILKGGGCENKNIQYSLPCELEGLGRAGRDLEGIRKCLLHAVYQAQGQGCSAGVIGVGIGGDRTSGYELAKNQLFRTLDDVNPIPELQQLEEYVLENANKLGIGTMGFGGETTLLGCKIGVYNRLPASFYVSVAYNCWAYRRLGVTIHPETGEIMDWLYQEGEDTLEQEVQEKTEQREIVLQAPITEEQIRELRVGDVVTINGMMYTGRDAIHKHLMDNDCPVDLNGQIIYHCGPVVVKDENDNWQIKAAGPTTSIREEPYQGDIMKKFGIRAVIGKGGMGAKTLAALEEHGGVYLNAIGGAAQYYAECIKEVKDVDFLQFGIPEAMWHLRIDGFKAVVTMDSHGNSLHADVDKTSLEKLASFKEPVFK | not soluble
10 | MGSDKIHHHHHHMTKLTAHPQTEGAFTVASLEFLKQLAQHNSRDWFKTHQDEYENTIRTPALRFIEQIQPHIIAISPRLTAVAKKVGGSLMRPQRDSRFSKDKTPYKTNIGIQFRHFQGKDVHAPGLYLHIAEDGCFIAAGIWHPESKALNAIRTCIDENPNGYKKALQSLTNHGFMMDGDSLTRPPKGFDKHHPMLTELKRKDFIAVKNIPFERLCQRDAVHYCAEQLAHCSQLMAYLCFALELDF | not soluble
11 | MSLQTLSIQHGTLVTMDQYRRVLGDSWVHVQDGRIVALGVHAESVPPPADRVIDARGKVVLPGFINAHTHVNQILLRGGPSHGRQLYDWLFNVLYPGQKAMRPEDVAVAVRLYCAEAVRSGITTINDNADSAIYPGNIEAAMAVYGEVGVRVVYARMFFDRMDGRIQGYVDALKARSPQVELCSIMEETAVAKDRITALSDQYHGTAGGRISVWPAPAITPAVTVEGMRWAQAFARDRAVMWTLHMAESDHDERLHWMSPAEYMECYGLLDERLQVAHCVYFDRKDVRLLHRHNVKVASQVVSNAYLGSGVAPVPEMVERGMAVGIGTDDGNCNDSVNMIGDMKFMAHIHRAVHRDADVLTPEKILEMATIDGARSLGMDHEIGSIETGKRADLILLDLRHPQTTPHHHLAATIVFQAYGNEVDTVLIDGNVVMENRRLSFLPPERELAFLEEAQSRATAILQRANMVANPAWRSLEGHHHHHH | soluble
12 | MGSDKIHHHHHHMMFLFINISLAQTADTAVKSDELQTTTTSVDEVGVAPADPTPTLSKKELRRQRVAKRNLHYNILGGPSYTPDFGLLIGGSALMTFRMNPSDTTQQRSVVPMAIALMFEGGLNLFTKPQLFFKGDRFRIFGVFAYKNTLENFYGIGYSTNKDYPRGEDTSEYRYSGVQVNPWFLFRLGKSNFFAGPQIDFNYDKITKPAAGMIEQPSYIAAGGTDHGYSNLSSGLGFLLTYDTRDVPANAYRGTYLDFRGMMYNKAFGSDNNFYRLEIDYRQYKTLGKRKVLAWTVQTKNVFGNVPLTKYALSGTPFDLRGYYMGQFRDKSSHVMMAEYRQMINTDKSNWVKKMLNHVGYVAWGGCGFMGPTPGKIEGVLPNLGLGLRIEVQPRMNVRLDFGRDMVNKQNLFYFNMTEAF | not soluble
13 | GMKNIKIMRLVTGEDIIGNISESQGLITIKKAFVIIPMQATPGKPVQLVLSPWQPYTDDKEIVIDDSKVITITSPKDDIIKSYESHTSEIITPSGLITET | soluble
14 | MKNNPKTRYPLRLEESYAKNIQKAVKEIEKVSLYEFDKYLAPMIDDKNIVNDSNLINDGLFDAASKLIRNAQTYFLGILQNRTAQKIVRKHINSVNAFNKSNVNSQLSARGINPLQTEKWLDSYVQAKIAENISYVTNIRDDYSKKFEQVIYRGITEGKSSNEIREELVHQAGMSSDKAAFIARDQTGTILGQMNSERQKRAGFQAFRWSDSGDERVRDSHRERNGKIYFYADNPLLPGEEYNCRCVAEPVDDEELLEESIDLGLSNQEEHAVKTYVSSEAYKLNDKLRNGYQLDESDLKLIDNLDKALGKMTNYDGEVTRSMFFDSSDDLVRFANNYNLNDVVQFPEYISTTKDIYSEQDSLRFVIMSSTGKDLGSYNKSEKEVLFNRDAKFIVKDRYLLDGKPFIVLEEYHE | not soluble
15 | GSVYNTKKVGKRLNIQLKKGTEGLGFSITSRDVTIGGSAPIYVKNILPRGAAIQDGRLKAGDRLIEVNGVDLAGKSQEEVVSLLRSTKMEGTVSLLVFRQEEAFHPREMNA | soluble
16 | MAYWLMKSEPDEFSISDLQRLGKARWDGVRNYQARNFLRTMAEGDEFFFYHSSCPEPGIAGIGKIVKTAYPDPTALDPDSHYHDAKATTEKNPWSALDIGFVDIFKNVLGLGYLKQQSQLEQLPLVQKGSRLSVMPVTAEQWAAILALRLEHHHHHH | soluble
